Laboratory results reported in US20240288446A1 (H PITAUX UNIVERSITAIRES DE STRASBOURG, published 2024).

Molecular target: T1, α1-proteinase inhibitor (human, UniProt P01009 25-418)
T1 construct: also called α1-PI; α1PI
Assay: ELISA of HNE-α1-PI complexes in human plasma

T1 sequence (P01009 25-418 limits assumed): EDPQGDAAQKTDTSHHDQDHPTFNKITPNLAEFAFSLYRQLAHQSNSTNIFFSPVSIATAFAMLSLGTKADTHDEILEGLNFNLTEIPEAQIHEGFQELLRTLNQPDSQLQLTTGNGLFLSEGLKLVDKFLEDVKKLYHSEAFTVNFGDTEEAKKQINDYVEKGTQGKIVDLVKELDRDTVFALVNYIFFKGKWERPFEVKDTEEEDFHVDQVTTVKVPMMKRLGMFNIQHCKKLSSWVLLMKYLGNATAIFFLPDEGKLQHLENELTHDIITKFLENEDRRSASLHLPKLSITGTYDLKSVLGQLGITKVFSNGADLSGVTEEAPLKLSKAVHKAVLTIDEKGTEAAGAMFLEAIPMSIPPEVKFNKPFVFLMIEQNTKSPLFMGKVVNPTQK

B1: Human neutrophil elastase (enzyme, UniProt P08246 30-247, looked up)
chain: IVGGRRARPHAWPFMVSLQLRGGHFCGATLIAPNFVMSAAHCVANVNVRAVRVVLGAHNLSRREPTRQVFAVQRIFENGYDPVNLLNDIVILQLNGSATINANVQVAQLPAQGRRLGNGVQCLAMGWGLLGRNRGIASVLQELNVTVVTSLCRRSNVCTLVRGRQAGVCFGDSGSPLVCNGLIHGIASFVRGGCASGLYPDAFAPVAQFVNWIDSIIQ
notes: Tested free (purified, in supernatants or in plasma) and as an HNE-DNA complex on NETs; also called HNE; leukocyte elastase
**Q.** Does B1 bind?
**A.** Result: binds
